Experimental data reported in the supplement of paper PMC10065799, “High-throughput profiling of sequence recognition by tyrosine kinases and SH2 domains using bacterial peptide display” (eLife, 2023).

How the values were obtained:
AncSZ = assay: phosphorylation enrichment, bacterial display (enrichment ratio); higher = better substrate or ligand; peptides without Tyr show the background
EPHB1 = EPHB1 (UniProt P54762); assay: as above
EPHB2 = EPHB2 (UniProt P29323); assay: as above
FGFR1 = FGFR1 (UniProt P11362); assay: as above
Chain of FGFR1 (P11362 whole entry, looked up): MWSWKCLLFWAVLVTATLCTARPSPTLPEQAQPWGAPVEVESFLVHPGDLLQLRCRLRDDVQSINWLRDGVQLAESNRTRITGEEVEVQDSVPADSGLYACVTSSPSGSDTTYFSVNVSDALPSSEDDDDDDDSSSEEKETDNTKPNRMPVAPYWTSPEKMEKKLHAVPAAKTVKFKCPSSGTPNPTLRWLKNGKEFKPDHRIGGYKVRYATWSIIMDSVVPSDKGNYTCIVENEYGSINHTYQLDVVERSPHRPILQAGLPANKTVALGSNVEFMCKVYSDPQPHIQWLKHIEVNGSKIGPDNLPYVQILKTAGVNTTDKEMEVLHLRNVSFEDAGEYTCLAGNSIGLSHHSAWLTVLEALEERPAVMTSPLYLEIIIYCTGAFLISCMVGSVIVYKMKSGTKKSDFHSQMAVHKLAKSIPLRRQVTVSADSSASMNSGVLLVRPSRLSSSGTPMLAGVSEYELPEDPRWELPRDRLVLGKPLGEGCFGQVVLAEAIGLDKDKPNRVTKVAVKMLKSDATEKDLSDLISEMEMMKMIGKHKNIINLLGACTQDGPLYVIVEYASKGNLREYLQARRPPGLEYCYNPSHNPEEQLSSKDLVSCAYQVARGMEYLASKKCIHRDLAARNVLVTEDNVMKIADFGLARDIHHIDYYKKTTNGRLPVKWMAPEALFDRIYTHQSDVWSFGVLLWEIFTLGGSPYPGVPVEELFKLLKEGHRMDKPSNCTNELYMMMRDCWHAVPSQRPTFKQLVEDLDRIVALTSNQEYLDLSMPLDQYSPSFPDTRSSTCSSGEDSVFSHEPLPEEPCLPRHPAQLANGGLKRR

FGFR3 = FGFR3 (UniProt P22607); assay: as above
Chain of FGFR3 (P22607 whole entry, looked up): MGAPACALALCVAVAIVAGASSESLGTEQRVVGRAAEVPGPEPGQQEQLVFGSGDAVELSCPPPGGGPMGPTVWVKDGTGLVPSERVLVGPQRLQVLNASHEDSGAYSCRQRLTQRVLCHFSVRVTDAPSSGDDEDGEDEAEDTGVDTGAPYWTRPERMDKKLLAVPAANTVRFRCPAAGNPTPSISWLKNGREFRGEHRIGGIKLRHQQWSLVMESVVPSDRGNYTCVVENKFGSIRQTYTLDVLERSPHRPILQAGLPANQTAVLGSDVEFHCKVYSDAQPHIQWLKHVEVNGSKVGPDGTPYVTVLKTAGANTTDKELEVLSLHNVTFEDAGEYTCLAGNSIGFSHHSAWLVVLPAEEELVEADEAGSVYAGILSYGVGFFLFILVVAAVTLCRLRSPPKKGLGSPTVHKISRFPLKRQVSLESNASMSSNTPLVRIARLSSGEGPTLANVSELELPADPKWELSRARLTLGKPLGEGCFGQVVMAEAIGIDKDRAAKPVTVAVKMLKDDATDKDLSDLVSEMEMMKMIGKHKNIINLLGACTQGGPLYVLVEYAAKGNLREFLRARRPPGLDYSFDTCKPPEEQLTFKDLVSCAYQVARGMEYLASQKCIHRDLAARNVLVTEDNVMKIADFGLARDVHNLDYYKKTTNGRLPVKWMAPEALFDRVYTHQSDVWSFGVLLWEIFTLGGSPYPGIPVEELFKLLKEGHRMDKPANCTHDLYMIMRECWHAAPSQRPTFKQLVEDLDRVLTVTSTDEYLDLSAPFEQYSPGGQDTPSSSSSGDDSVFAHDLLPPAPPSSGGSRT

Fer (mouse) = assay: as above
Fes = Fes (UniProt P07332); assay: as above
Chain of Fes (P07332 whole entry, looked up): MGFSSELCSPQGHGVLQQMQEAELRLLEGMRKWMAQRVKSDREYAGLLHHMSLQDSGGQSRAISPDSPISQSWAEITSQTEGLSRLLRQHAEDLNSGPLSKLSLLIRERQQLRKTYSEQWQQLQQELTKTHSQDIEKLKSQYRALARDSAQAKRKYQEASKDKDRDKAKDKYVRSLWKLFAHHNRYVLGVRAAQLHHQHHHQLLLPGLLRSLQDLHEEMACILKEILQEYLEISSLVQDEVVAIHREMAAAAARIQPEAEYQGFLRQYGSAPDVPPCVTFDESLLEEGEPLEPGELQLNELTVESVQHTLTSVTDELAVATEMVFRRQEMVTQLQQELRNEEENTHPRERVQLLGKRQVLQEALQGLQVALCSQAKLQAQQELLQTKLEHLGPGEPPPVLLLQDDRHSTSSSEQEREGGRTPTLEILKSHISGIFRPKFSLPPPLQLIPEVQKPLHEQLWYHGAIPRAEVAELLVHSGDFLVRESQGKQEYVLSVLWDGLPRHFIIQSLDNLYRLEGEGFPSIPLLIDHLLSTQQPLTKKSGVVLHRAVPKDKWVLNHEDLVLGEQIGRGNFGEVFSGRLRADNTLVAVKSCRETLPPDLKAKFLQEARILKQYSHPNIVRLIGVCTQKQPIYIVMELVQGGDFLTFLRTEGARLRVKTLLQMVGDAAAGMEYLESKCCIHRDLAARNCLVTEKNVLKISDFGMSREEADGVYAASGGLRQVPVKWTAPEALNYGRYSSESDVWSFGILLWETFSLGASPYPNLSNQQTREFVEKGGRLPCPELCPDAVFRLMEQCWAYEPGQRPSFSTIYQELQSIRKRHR

Fyn = Fyn (UniProt P06241); assay: as above
Chain of Fyn (P06241 whole entry, looked up): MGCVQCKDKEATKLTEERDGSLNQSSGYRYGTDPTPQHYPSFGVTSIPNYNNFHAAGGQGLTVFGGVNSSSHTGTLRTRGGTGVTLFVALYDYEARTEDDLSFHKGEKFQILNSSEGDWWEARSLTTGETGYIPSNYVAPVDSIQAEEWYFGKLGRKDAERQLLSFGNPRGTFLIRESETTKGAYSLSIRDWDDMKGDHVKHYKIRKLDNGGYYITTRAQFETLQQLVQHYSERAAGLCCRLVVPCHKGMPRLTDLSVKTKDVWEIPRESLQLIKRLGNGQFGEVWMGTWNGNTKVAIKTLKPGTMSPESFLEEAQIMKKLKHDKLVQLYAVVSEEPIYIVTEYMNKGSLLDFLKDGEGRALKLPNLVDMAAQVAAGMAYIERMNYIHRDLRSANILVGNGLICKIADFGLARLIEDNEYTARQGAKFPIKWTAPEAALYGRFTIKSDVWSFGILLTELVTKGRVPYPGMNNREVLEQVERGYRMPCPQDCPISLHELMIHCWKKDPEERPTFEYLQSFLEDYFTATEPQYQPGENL

Hck = Hck (UniProt P08631); assay: as above
Jak2 = Jak2 (UniProt O60674); assay: as above
MERTK = MERTK (UniProt Q12866); assay: as above
Chain of MERTK (Q12866 whole entry, looked up): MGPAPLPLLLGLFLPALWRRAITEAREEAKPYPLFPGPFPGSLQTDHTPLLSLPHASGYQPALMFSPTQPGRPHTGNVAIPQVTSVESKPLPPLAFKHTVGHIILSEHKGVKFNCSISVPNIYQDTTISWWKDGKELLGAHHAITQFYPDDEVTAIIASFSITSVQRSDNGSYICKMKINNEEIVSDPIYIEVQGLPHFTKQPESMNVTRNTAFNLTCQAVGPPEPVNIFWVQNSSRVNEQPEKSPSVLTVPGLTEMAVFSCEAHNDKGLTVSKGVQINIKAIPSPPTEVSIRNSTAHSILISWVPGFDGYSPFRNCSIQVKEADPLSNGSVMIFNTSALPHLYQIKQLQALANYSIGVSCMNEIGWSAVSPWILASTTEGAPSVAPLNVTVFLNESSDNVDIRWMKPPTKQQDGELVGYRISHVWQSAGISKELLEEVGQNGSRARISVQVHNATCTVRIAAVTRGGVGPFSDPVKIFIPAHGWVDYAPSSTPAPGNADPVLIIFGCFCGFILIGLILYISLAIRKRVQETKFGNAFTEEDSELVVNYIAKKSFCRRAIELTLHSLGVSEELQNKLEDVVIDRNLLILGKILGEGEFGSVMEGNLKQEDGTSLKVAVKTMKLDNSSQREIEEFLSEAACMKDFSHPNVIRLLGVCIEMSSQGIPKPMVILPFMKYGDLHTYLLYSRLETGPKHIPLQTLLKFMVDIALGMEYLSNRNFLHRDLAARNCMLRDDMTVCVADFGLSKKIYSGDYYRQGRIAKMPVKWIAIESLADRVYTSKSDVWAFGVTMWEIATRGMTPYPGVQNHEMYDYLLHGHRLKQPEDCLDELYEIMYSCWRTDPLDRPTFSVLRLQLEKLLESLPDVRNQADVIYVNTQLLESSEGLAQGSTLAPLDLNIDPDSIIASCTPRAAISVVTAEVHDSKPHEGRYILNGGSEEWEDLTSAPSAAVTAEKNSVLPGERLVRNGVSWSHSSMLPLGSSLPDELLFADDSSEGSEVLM

c-Abl (mouse) = assay: as above
c-Src = assay: as above
Grb2 SH2 = Grb2 SH2 (UniProt P62993); assay: SH2 binding enrichment of the phosphorylated peptide, bacterial display (enrichment ratio); higher = better substrate or ligand; peptides without Tyr show the background
SHP2-C SH2 = assay: as above
c-Src SH2 = assay: as above
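For SH2 binding enrichment of the phosphorylated peptide, bacterial display in this document: peptide library displayed on the E. coli surface as eCPX fusions, selected cells deep-sequenced, score is each peptide's frequency after selection divided by its frequency in the input.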
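For phosphorylation enrichment, bacterial display in this document: 11-residue human phosphosite peptides and single-mutation variants displayed on the E. coli surface, counted by deep sequencing, each peptide's frequency after selection divided by its frequency in the unselected input library; frequency after pTyr selection over input frequency; kinase dosed for 20-30% of maximal phosphorylation in three min.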

Chain of EPHB1 (P54762 whole entry, looked up): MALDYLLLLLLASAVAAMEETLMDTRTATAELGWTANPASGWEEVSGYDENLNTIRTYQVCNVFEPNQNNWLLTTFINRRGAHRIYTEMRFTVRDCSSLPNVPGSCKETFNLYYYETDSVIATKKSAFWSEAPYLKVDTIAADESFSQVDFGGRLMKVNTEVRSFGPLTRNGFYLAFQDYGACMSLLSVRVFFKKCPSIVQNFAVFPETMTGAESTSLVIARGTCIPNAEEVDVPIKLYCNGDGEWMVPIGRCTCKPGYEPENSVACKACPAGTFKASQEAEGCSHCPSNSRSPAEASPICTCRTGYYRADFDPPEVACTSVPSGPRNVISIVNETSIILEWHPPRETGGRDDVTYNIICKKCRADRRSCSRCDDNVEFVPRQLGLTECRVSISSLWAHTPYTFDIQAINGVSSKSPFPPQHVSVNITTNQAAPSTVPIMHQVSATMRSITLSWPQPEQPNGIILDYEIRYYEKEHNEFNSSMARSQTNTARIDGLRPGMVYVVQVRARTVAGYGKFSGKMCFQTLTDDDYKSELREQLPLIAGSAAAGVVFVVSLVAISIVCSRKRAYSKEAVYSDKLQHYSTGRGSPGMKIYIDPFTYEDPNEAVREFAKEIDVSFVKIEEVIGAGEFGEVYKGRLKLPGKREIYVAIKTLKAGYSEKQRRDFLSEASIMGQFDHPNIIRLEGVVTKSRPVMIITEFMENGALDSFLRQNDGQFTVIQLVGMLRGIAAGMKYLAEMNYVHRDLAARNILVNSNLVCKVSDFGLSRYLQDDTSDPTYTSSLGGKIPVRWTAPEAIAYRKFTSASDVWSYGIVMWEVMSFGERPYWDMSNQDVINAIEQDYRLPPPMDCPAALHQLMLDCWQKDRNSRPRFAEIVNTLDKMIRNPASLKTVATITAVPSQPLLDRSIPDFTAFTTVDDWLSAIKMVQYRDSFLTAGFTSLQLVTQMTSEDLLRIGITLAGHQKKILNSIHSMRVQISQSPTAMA

| SH2 binding enrichment (Grb2 SH2) | SH2 binding enrichment (SHP2-C SH2) | SH2 binding enrichment (c-Src SH2) | Sequence | phosphorylation enrichment (AncSZ) | phosphorylation enrichment (EPHB1) | phosphorylation enrichment (EPHB2) | phosphorylation enrichment (FGFR1) | phosphorylation enrichment (FGFR3) | phosphorylation enrichment (Fer (mouse)) | phosphorylation enrichment (Fes) | phosphorylation enrichment (Fyn) | phosphorylation enrichment (Hck) | phosphorylation enrichment (Jak2) | phosphorylation enrichment (MERTK) | phosphorylation enrichment (c-Abl (mouse)) | phosphorylation enrichment (c-Src) |
| --- | --- | --- | --- | --- | --- | --- | --- | --- | --- | --- | --- | --- | --- | --- | --- | --- |
| 1.45 | 1.36 | 1.98 | PPAPRYHHLAV [LZTR1_Y119_S122L] | 0.868 | 0.606 | 0.514 | 0.377 | 0.745 | 0.491 | 0.964 | 0.444 | 0.71 | 1.19 | 0.556 | 0.664 | 0.552 |
| 0.975 | 0.865 | 0.916 | CASQLYPRHKH [DCTN4_Y263] | 0.673 | 0.43 | 0.464 | 0.533 | 0.639 | 0.44 | 0.928 | 0.38 | 0.483 | 1.02 | 0.428 | 0.807 | 0.405 |
| 0.544 | 0.57 | 0.327 | RRGMPYGGCGD [TGM1_Y312_R315C] | 0.782 | 0.551 | 0.486 | 0.634 | 0.573 | 0.409 | 0.489 | 0.522 | 0.659 | 0.5 | 0.454 | 0.595 | 0.486 |
| 0.78 | 0.715 | 0.392 | ITLPIYTKGSE [ANK2_Y1455_E1458G] | 0.63 | 0.599 | 0.478 | 0.392 | 0.502 | 0.451 | 0.759 | 0.581 | 0.645 | 0.571 | 0.481 | 0.446 | 0.529 |
| 0.95 | 0.478 | 0.534 | RRIHSYRGHLC [VHL_Y112_W117C] | 0.774 | 0.656 | 0.619 | 0.503 | 0.733 | 0.382 | 1.3 | 0.531 | 0.63 | 0.821 | 0.828 | 0.534 | 0.566 |
| 1.03 | 0.771 | 0.773 | ALHHPYGCDVE [ABL2_Y80_R78H] | 0.803 | 0.606 | 0.621 | 0.441 | 0.726 | 0.447 | 0.998 | 0.44 | 0.541 | 0.708 | 0.44 | 0.681 | 0.669 |
| 0.822 | 0.829 | 0.458 | CNPLRYPTIMI [OR6K6_Y160] | 0.946 | 0.49 | 0.758 | 0.584 | 0.84 | 0.419 | 0.962 | 0.524 | 0.5 | 0.871 | 0.482 | 0.737 | 0.464 |
| 1.03 | 0.69 | 0.594 | PCPANYFAFKI [FAM3D_Y65] | 2.11 | 6.38 | 3.72 | 9.03 | 7.65 | 1.12 | 2.29 | 1.14 | 1.34 | 8.15 | 12.1 | 7.14 | 4.44 |
| 1.05 | 0.723 | 0.544 | AFPGEYIPTVF [RAC1_Y32] | 0.776 | 0.444 | 0.476 | 0.618 | 0.617 | 0.509 | 0.828 | 0.381 | 0.492 | 0.924 | 0.474 | 0.689 | 0.476 |
| 0.728 | 0.493 | 0.533 | AKRKGYDMQVD [NEB_Y2770_R2773Q] | 0.473 | 0.257 | 0.366 | 0.311 | 0.315 | 0.328 | 0.395 | 0.327 | 0.363 | 0.377 | 0.301 | 0.372 | 0.404 |
| 0.719 | 0.464 | 0.49 | GIMEEYQLPFF [BMPR1A_Y453_V450M_YF] | 4.83 | 0.648 | 0.914 | 1.7 | 1.32 | 0.587 | 1.11 | 1.2 | 0.676 | 1.09 | 0.499 | 2.27 | 0.894 |
| 1.06 | 1.22 | 0.776 | LLGFLYFFVCS [SLC34A2_Y109] | 1.66 | 1.17 | 1.76 | 1.03 | 1.81 | 1.43 | 3.17 | 1.26 | 0.948 | 2.88 | 1.04 | 2.89 | 2.1 |
| 0.782 | 0.679 | 0.642 | IEKLPYIDKWF [CPS1_Y872_T871P] | 0.953 | 0.472 | 0.482 | 0.51 | 0.567 | 0.333 | 1.01 | 0.368 | 0.456 | 0.833 | 0.359 | 0.574 | 0.479 |
| 0.889 | 0.678 | 0.486 | QHVPDYRQNGY [PCDHGA1_Y890_V894G] | 0.788 | 0.484 | 0.548 | 0.52 | 0.578 | 0.496 | 0.887 | 0.523 | 0.524 | 0.719 | 0.493 | 0.621 | 0.514 |
| 1.15 | 0.635 | 0.537 | DMLYQYLKQIE [RPAP3_Y569] | 1.23 | 3.36 | 1.96 | 3.07 | 2.4 | 6.39 | 0.887 | 1.19 | 5.42 | 0.83 | 5.97 | 0.602 | 1.43 |
| 0.61 | 0.491 | 0.367 | ANNEYYFQVCA | 2.03 | 0.957 | 0.768 | 8.62 | 7.38 | 0.614 | 1.5 | 0.607 | 0.706 | 1.68 | 0.73 | 1.01 | 0.892 |
| 1.23 | 1.09 | 0.721 | DLRGIYQKLVI | 0.826 | 1.81 | 1.32 | 0.825 | 0.854 | 7.47 | 1.4 | 6.38 | 6.68 | 0.869 | 4.99 | 1.76 | 5.56 |

| SH2 binding enrichment (Grb2 SH2) | SH2 binding enrichment (SHP2-C SH2) | SH2 binding enrichment (c-Src SH2) | Sequence | phosphorylation enrichment (AncSZ) | phosphorylation enrichment (EPHB1) | phosphorylation enrichment (EPHB2) | phosphorylation enrichment (FGFR1) | phosphorylation enrichment (FGFR3) | phosphorylation enrichment (Fer (mouse)) | phosphorylation enrichment (Fes) | phosphorylation enrichment (Fyn) | phosphorylation enrichment (Hck) | phosphorylation enrichment (Jak2) | phosphorylation enrichment (MERTK) | phosphorylation enrichment (c-Abl (mouse)) | phosphorylation enrichment (c-Src) |
| --- | --- | --- | --- | --- | --- | --- | --- | --- | --- | --- | --- | --- | --- | --- | --- | --- |
| 1.14 | 1.19 | 1.45 | FLAVGYHKPFI [IDS_Y225_H229Y_YF] | 0.701 | 0.359 | 0.416 | 0.381 | 0.647 | 0.435 | 0.8 | 0.38 | 0.456 | 1.29 | 0.428 | 3.35 | 0.39 |
| 0.767 | 0.609 | 0.444 | CTNPRYLAAGS [RABL3_Y185] | 0.794 | 0.496 | 0.486 | 0.507 | 0.646 | 0.629 | 0.767 | 0.426 | 0.357 | 0.915 | 0.415 | 0.787 | 0.467 |
| 0.823 | 0.879 | 9.23 | ALSDGYWVVSN [TPP1_Y459] | 1.19 | 0.475 | 0.518 | 1.32 | 1.1 | 0.398 | 1.01 | 0.44 | 0.635 | 1.79 | 0.372 | 0.71 | 0.516 |
| 1 | 1.1 | 0.696 | TQPSPYAVFRF [RPGRIP1_Y823_YF] | 0.952 | 2.6 | 0.922 | 0.893 | 0.8 | 9.31 | 0.805 | 10.7 | 8.6 | 0.824 | 9.69 | 24.8 | 7.72 |
| 0.964 | 0.444 | 1.95 | LLKAKYELLNA [POLR3A_Y714] | 0.582 | 0.454 | 0.491 | 0.423 | 0.493 | 0.423 | 0.614 | 0.466 | 0.496 | 0.707 | 0.418 | 0.544 | 0.405 |
| 2.19 | 1.76 | 1.21 | LLILEYAKFGS [RET_Y806_V804L_YF] | 1.34 | 1.49 | 0.991 | 0.85 | 1.38 | 0.699 | 1.52 | 1.01 | 0.901 | 1.15 | 0.585 | 0.635 | 0.976 |
| 0.859 | 0.647 | 0.647 | TARREYMHSPS [CPOX_Y429_W427R] | 0.489 | 0.345 | 0.449 | 0.349 | 0.355 | 0.396 | 0.656 | 0.63 | 0.471 | 0.468 | 0.43 | 0.507 | 0.432 |
| 1.86 | 3.4 | 3.12 | RNPLRYTSILT [OR51B6_Y130_S126N] | 0.689 | 0.478 | 0.482 | 0.582 | 0.738 | 0.474 | 0.794 | 0.532 | 0.498 | 0.892 | 0.484 | 0.697 | 0.65 |
| 2.16 | 2.37 | 0.829 | LLVVVYKYRCY [PSEN1_Y154_L153V] | 2 | 2.05 | 1.22 | 1.08 | 1.22 | 1.25 | 3.48 | 0.703 | 1.08 | 0.994 | 0.474 | 1.65 | 0.662 |
| 1.01 | 0.893 | 0.76 | KACNPYKPPGP | 0.629 | 0.464 | 0.478 | 0.462 | 0.589 | 0.521 | 0.663 | 0.521 | 0.496 | 0.881 | 0.543 | 0.524 | 0.699 |
| 0.881 | 0.605 | 0.468 | EFTAGYNVKFD [GPX4_Y123_A120T] | 0.762 | 0.422 | 0.474 | 0.41 | 0.547 | 0.495 | 0.891 | 0.465 | 0.435 | 0.9 | 0.445 | 0.635 | 0.44 |
| 0.849 | 0.589 | 4.06 | NACGLYHTMNG [GATA5_Y216_K218T] | 0.959 | 0.934 | 0.849 | 2.47 | 1.79 | 0.643 | 0.95 | 0.865 | 2.21 | 0.956 | 3.18 | 0.746 | 3.06 |
| 1.89 | 2.23 | 1.82 | KKHIPYKEHKS [CSNK1G1_Y205_R206K] | 1.53 | 1.15 | 0.951 | 0.942 | 2.2 | 1.2 | 2.1 | 0.597 | 0.842 | 3.96 | 0.987 | 3.19 | 1.03 |
| 0.786 | 0.667 | 0.554 | ECKLLYSQKEG [PTPN11_Y263_R265Q] | 0.865 | 0.643 | 0.759 | 0.532 | 0.705 | 0.607 | 1.08 | 0.489 | 0.682 | 0.986 | 0.494 | 0.724 | 0.541 |
| 0.598 | 0.417 | 0.392 | GMSQAYSSSQR [DES_Y5] | 0.466 | 0.379 | 0.321 | 0.32 | 0.382 | 0.354 | 0.685 | 0.309 | 0.325 | 0.477 | 0.337 | 0.475 | 0.37 |
| 1.08 | 0.996 | 0.566 | FIGVTYKNKED [PDGFRA_Y993_E996K_YF] | 0.776 | 0.422 | 0.582 | 0.458 | 0.743 | 0.417 | 0.922 | 0.495 | 0.427 | 0.797 | 0.386 | 0.567 | 0.426 |
|  |  |  | QNTGGYFDLFG [PTPN11_Y62_D61G_YF] |  |  |  |  |  |  |  |  |  | 1.26 |  | 0.27 |  |
